Source: patent US20230220070A1 (ARIALYS THERAPEUTICS, published 2023)

Legend:
[1] = target: T1, human NR1-His protein (extracellular domain of human NR1 with linker, HisTag and AviTag) (human, UniProt Q05586 19-392); assay: competition ELISA on plate-coated human NR1-His protein; inhibition of the binding of biotin-labelled P003-102, streptavidin-HRP chemiluminescence
T1 construct: Expressed in Expi293F cells and purified from the supernatant; also called human NRA-His protein; human NR-His protein
Experimental: Specifically, 15 μL of the human NR1-His protein solution (1 μg/mL in Tris Buffered Saline (herein referred to as “TBS”)) was added to the 384 well plate (Thermo Fisher Scientific, 460372) and incubated overnight at 4° C. Then, the human NRA-His protein solution was removed and washed with 0.5% Tween-20 comprising TBS, NIPPON GENE, 310-07375 (referred to as “TBS-T”). After the wash, 50 uL of Blocking One (Nacalai Tesque, Inc., 03953-95) was added and incubated at room temperature for 1 hour or more.
After the wash, 15 μL is added to the HRP-labelled streptavidin (Funakoshi Co., Ltd., 21130) diluted 8,000 times using diluent, and incubated at room temperature for 30 minutes.

[2] = target: T1, human NR1-His protein (extracellular …); assay: SPR (Biacore T200), antibody captured by anti-human IgG on a CM5 chip, human NR1-His protein as analyte, 1:1 binding model
[3] = target: T2, human NMDAR (NR1/NR2B) on NMDAR expressing HEK cells (human, UniProt Q05586 19-938; Q13224 27-1484); assay: flow cytometry on NMDAR-expressing HEK cells, PE-labelled anti-human IgG, GeoMFI
T2 construct: whole, on cells; Commercial HEK cell line (Charles River Laboratories, CTN6121); The antibodies are directed against the NR1 subunit; also called cell surface NMDAR; NMDAR expressed in HEK cells
Experimental: The binding activity of the produced humanized one-armed anti-human NR1 monoclonal antibodies was evaluated in a flow cytometry trial using the NMDAR expressing HEK cell.
The NMDAR expressing HEK cells were induced overnight and collected. […] After staining, the cells were sedimented at 1,200 rpm for 5 minutes and the supernatant was removed. After adding 2% Dialyzed FBS to the cells, the cells were centrifuged and sedimented. After the supernatant was removed, the PE labeled anti-human IgG antibody (Jackson ImmunoResearch Laboratories, 109-116-098) was diluted 100 times with 2% Dialyzed FBS and added to cells for 30 minutes at 4° C. After staining, the cells were centrifuged and sedimented as described above. After removing the supernatant, the cells were suspended in 2% Dialyzed FBS and the steps after secondary staining were repeated. The flow cytometry (FACS Verse) was measured as described in Example 3. each antibody binds with the cell surface NMDAR from GeoMFI showing the PE Fluorescence intensity value was analyzed using FlowJo (Becton Dickinson, Ver. 10.0.8).

IC50 (read off the curve) [1] [µg/mL]	Kd [2] [pM]	EC50 (read off the curve) [3] [µg/mL]	Binder
~2	878	–	ABN-4, humanized one-armed anti-human NR1 antibody (antibody, human IgG1, kappa, L234A L235A) heavy: not shown light: DIQMTQSPSSLSASVGDRVTITCRPSENIYSNLAWYQQKPGKAPKLLVYAATNLADGVPSRFSGSGSGTDYTLTISSLQPEDIATYYCQHFWDSPPTFGQGTKLEIKRTVAAPSVFIFPPSDEQLKSGTASVVCLLNNFYPREAKVQWKVDNALQSGNSQESVTEQDSKDSTYSLSSTLTLSKADYEKHKVYACEVTHQGLSSPVTKSFNRGEC not shown
–	–	~0.8	ABN-5, one-armed anti-human NR1 antibody derived from P003-102 (antibody, human IgG1, lambda, L234A L235A, Monovalent one-armed antibody made of one heavy chain (LALA; T366S, L368A, Y407V), one light chain and one Fc polypeptide) heavy: not shown light: NFMLTQPHSVSESPGKTVTISCTRSSGSIASNYVQWYQQRPGSAPTTVIYEDNQRPSGVPDRFSGSIDSSSNSASLTISGLKTEDEADYYCQSYDSSTVVFGGGTKLTVLGQPKANPTVTLFPPSSEELQANKATLVCLISDFYPGAVTVAWKADGSPVKAGVETTKPSKQSNNKYAASSYLSLTPEQWKSHRSYSCQVTHEGSTVEKTVAPTECS not shown
~0.3	–	~0.05	ABN-2, humanized one-armed anti-human NR1 antibody (antibody, human IgG1, kappa, L234A L235A, also called ABN_178-m3) heavy: not shown light: DLQMTQSPSSLSASVGDRVTITCKASQDVNTAVAWYQQKPGKAPKLLIYWASTRHTGVPSRFSGSGSGTDYTLTISSLQPEDFATYYCQQHYSTPFTFGQGTKVEIKRTVAAPSVFIFPPSDEQLKSGTASVVCLLNNFYPREAKVQWKVDNALQSGNSQESVTEQDSKDSTYSLSSTLTLSKADYEKHKVYACEVTHQGLSSPVTKSFNRGEC not shown
